± gives the uncertainty stated by the source.
Experiment: self-splicing fitness, log relative to wild type (ln ratio); higher = more splicing; Tetrahymena group I intron in knt gene, E. coli kanamycin selection, DiMSum; sequences stand for … in CUCUCU…GGAGGGAAAAGUUAUCAGGCAUGCACCUGGUAGCUAGUCUUUAAACCAAUAGAUUGCAUCGGUUUAAAAGGCAAGACCGUCAAAUUGCGGGAAAGGGGUCAACAGCCGUUCAGUACCAAGUCUCAGGGGAAACUUUGAGAUGGCCUUGCAAAGGGUAUGGUAAUAAGCUGACGGACAUGGUCCUAACCACGCAGCCAAGUCCUAAGUCAACAGAUCUUCUGUUGAUAUGGAUGCAGUUCACAGACUAAAUGUCGGUCGGGGAAGAUGUAUUCUUCUCAUAAGAUAUAGUCGGACCUCUCCUUAAUGGGAGCUAGCGGAUGAAGUGAUGCAACACUGGAGCCGCUGGGAACUAAUUUGUAUGCGAAAGUAUAUUGAUUAGUUUUGGAGUACUCGUGGUCG
Outline: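 DiMSum derived fitness as the error-weighted combination of fold changes across replicates, kanamycin versus no kanamycin, normalised to wild type. E. coli BL21(DE3) held the library, which randomised all eight P1ex-region intron nucleotides within the knt kanamycin-resistance gene on pET-22b(+). Six replicate transformations grew overnight at 37°C or 30°C on LB agar with or without 25 μg/mL kanamycin, also containing 100 μg/mL carbenicillin, 50 μM IPTG and 0.2% rhamnose, and pooled colonies were amplicon-sequenced on an Illumina HiSeq 2500.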

Row | Sequence | self-splicing fitness (ln) (30 °C) | self-splicing fitness (ln) (37 °C)
1 | ACGAAGCAAUAUUACGAGAA | -1.6 ± 0.37 | –
2 | ACGAAGCAAUAUUACGAGGA | -3.29 ± 0.44 | -2 ± 0.29
3 | ACGAAGCAAUAUUACGAGUU | -3.04 ± 0.11 | -1.91 ± 0.15
4 | ACGAAGCAAUAUUACGAUCG | -0.102 ± 0.073 | 0.139 ± 0.11
5 | ACGAAGCAAUAUUACGAUGU | -3.96 ± 0.19 | -2.74 ± 0.18
6 | ACGAAGCAAUAUUACGCACU | -0.656 ± 0.094 | -0.172 ± 0.11
7 | ACGAAGCAAUAUUACGCCGC | -3.56 ± 0.21 | -2.02 ± 0.24
8 | ACGAAGCAAUAUUACGCCGG | -0.858 ± 0.11 | -0.467 ± 0.11
9 | ACGAAGCAAUAUUACGCCUC | -2.93 ± 0.31 | -1.77 ± 0.47
10 | ACGAAGCAAUAUUACGCGAC | -3.14 ± 0.2 | -1.78 ± 0.19
11 | ACGAAGCAAUAUUACGCGUU | -4.06 ± 0.33 | -2 ± 0.21
12 | ACGAAGCAAUAUUACGGAAG | -2.54 ± 0.12 | -2.4 ± 0.19
13 | ACGAAGCAAUAUUACGGCAC | -2.03 ± 0.17 | -0.996 ± 0.24
14 | ACGAAGCAAUAUUACGGCCG | -0.664 ± 0.19 | 0.746 ± 0.29
15 | ACGAAGCAAUAUUACGGGAG | -3.96 ± 0.22 | -2.73 ± 0.17
16 | ACGAAGCAAUAUUACGGUAC | -5.02 ± 0.38 | -2.24 ± 0.17
17 | ACGAAGCAAUAUUACGGUGG | -3.93 ± 0.15 | -2.56 ± 0.23
18 | ACGAAGCAAUAUUACGUAAC | -4.3 ± 0.42 | -2.34 ± 0.49
19 | ACGAAGCAAUAUUACGUAUA | -2.5 ± 0.12 | -2.16 ± 0.12
20 | ACGAAGCAAUAUUACGUCAU | -2.99 ± 0.12 | -2.81 ± 0.14
21 | ACGAAGCAAUAUUACGUUCU | -1.24 ± 0.07 | -0.898 ± 0.081
22 | ACGAAGCAAUAUUACGUUGA | -2.14 ± 0.17 | -1.22 ± 0.12
23 | ACGAAGCAAUAUUACGUUUG | -1.27 ± 0.071 | -1.16 ± 0.11
24 | ACGCAGCAAUAUUACGACAC | -1.83 ± 0.13 | -0.767 ± 0.16
25 | ACGCAGCAAUAUUACGAGCU | -2.76 ± 0.12 | -1.18 ± 0.12

Row | Sequence | self-splicing fitness (ln) (30 °C) | self-splicing fitness (ln) (37 °C)
26 | ACGCAGCAAUAUUACGAGGC | -2.95 ± 0.16 | -2.79 ± 0.3
27 | ACGCAGCAAUAUUACGAGUU | -3.67 ± 0.13 | -1.6 ± 0.11
28 | ACGCAGCAAUAUUACGAUAA | -2.84 ± 0.19 | -1.95 ± 0.15
29 | ACGCAGCAAUAUUACGAUAC | -2.56 ± 0.2 | -1.87 ± 0.19
30 | ACGCAGCAAUAUUACGCCCC | -0.51 ± 0.21 | -0.189 ± 0.28
31 | ACGCAGCAAUAUUACGCGAG | -2.56 ± 0.12 | -0.987 ± 0.11
32 | ACGCAGCAAUAUUACGCUUG | -3.56 ± 0.21 | -2.55 ± 0.2
33 | ACGCAGCAAUAUUACGGAAG | -3.57 ± 0.24 | -1.75 ± 0.16
34 | ACGCAGCAAUAUUACGGAGC | – | -2.47 ± 0.26
35 | ACGCAGCAAUAUUACGGGAA | -2.99 ± 0.14 | -2 ± 0.12
36 | ACGCAGCAAUAUUACGGGUU | -2.19 ± 0.069 | -1.92 ± 0.092
37 | ACGCAGCAAUAUUACGUAUC | -2.47 ± 0.2 | -1.18 ± 0.17
38 | ACGCAGCAAUAUUACGUCAC | -4.13 ± 0.39 | -2.54 ± 0.19
39 | ACGCAGCAAUAUUACGUCAU | -3.44 ± 0.12 | -1.52 ± 0.11
40 | ACGCAGCAAUAUUACGUCCC | – | -0.268 ± 0.48
41 | ACGCAGCAAUAUUACGUUCU | -1.1 ± 0.082 | -0.958 ± 0.09
42 | ACGCAGCAAUAUUACGUUUU | -3.43 ± 0.12 | -2.11 ± 0.11
43 | ACGGAGCAAUAUUACGAAAC | – | -1.46 ± 0.31
44 | ACGGAGCAAUAUUACGAACG | -2.54 ± 0.16 | -0.693 ± 0.16
45 | ACGGAGCAAUAUUACGAAUU | -3.52 ± 0.26 | -2.5 ± 0.27
46 | ACGGAGCAAUAUUACGACUU | -2.69 ± 0.1 | -1.37 ± 0.11
47 | ACGGAGCAAUAUUACGAUCC | – | -1.94 ± 0.47
48 | ACGGAGCAAUAUUACGCAAC | – | -2.4 ± 0.35
49 | ACGGAGCAAUAUUACGCAGG | -1.72 ± 0.15 | -2.41 ± 0.35
50 | ACGGAGCAAUAUUACGCAGU | -3.19 ± 0.34 | -2.35 ± 0.49

Source: the supplement of paper PMC7877785
